Reference: patent publication US20230357395A1 (MARENGO THERAPEUTICS, published 2023)
Positions count from the first letter of the chain named.

B1: BKM0098 (anti-TRBC2/NKp30 bispecific antibody) (bispecific antibody, human IgG1, kappa, N297A)
heavy: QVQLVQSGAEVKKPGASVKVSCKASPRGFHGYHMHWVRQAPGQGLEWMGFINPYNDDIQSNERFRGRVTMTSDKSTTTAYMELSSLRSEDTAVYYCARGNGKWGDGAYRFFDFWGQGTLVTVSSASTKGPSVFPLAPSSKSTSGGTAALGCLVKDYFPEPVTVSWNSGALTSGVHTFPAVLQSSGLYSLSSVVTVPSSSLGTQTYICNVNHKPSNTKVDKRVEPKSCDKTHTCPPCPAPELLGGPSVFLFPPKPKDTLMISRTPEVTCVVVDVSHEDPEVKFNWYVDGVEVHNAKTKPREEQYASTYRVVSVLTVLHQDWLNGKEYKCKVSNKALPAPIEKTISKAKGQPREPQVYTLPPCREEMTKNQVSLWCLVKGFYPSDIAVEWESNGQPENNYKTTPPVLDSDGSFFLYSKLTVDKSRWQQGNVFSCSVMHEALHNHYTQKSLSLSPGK
light: DVVMTQSPLSLPVTPGEPASISCRSSQNLVHSNGRTYLQWYLQKPGQSPQLLIYRVSNRFPGVPDRFSGSGSGTDFTLKISRVEAEDVGVYFCSQSTHVPYTFGGGTKVEIKRTVAAPSVFIFPPSDEQLKSGTASVVCLLNNFYPREAKVQWKVDNALQSGNSQESVTEQDSKDSTYSLSSTLTLSKADYEKHKVYACEVTHQGLSSPVTKSFNRGEC
scFv: EIQLLESGGGLVQPGGSLRLSCAVSGFSITTTGYHWNWVRQAPGKGLEWVGYIYSSGSTSYNPSLKSRFTISRDTSKNTFYLQMNSLRAEDTAVYYCARGDWHYFDYWGQGTMVTVSSGGGGSGGGGSGGGGSGGGGSDSVTTQSPLSLPVTLGQPASISCSGEKLSDKYVHWYQQRPGQSPRMLIYENDRRPSGVPDRFSGSNSGNDATLKISRVEAEDVGVYFCQFWDSTNSAVFGGGTKVEIKDKTHTCPPCPAPELLGGPSVFLFPPKPKDTLMISRTPEVTCVVVDVSHEDPEVKFNWYVDGVEVHNAKTKPREEQYASTYRVVSVLTVLHQDWLNGKEYKCKVSNKALPAPIEKTISKAKGQPREPQVCTLPPSREEMTKNQVSLSCAVKGFYPSDIAVEWESNGQPENNYKTTPPVLDSDGSFFLVSKLTVDKSRWQQGNVFSCSVMHEALHNHYTQKSLSLSPGK
notes: Anti-TRBC2 Fab-Fc and anti-NKp30 scFv-Fc; also called Anti-TRBC2-NKp30-BKM0098; Parental Bispecific
B2: BKM0240 (anti-TRBC2/NKp30 bispecific antibody) (bispecific antibody, human IgG1, kappa, N297A)
heavy: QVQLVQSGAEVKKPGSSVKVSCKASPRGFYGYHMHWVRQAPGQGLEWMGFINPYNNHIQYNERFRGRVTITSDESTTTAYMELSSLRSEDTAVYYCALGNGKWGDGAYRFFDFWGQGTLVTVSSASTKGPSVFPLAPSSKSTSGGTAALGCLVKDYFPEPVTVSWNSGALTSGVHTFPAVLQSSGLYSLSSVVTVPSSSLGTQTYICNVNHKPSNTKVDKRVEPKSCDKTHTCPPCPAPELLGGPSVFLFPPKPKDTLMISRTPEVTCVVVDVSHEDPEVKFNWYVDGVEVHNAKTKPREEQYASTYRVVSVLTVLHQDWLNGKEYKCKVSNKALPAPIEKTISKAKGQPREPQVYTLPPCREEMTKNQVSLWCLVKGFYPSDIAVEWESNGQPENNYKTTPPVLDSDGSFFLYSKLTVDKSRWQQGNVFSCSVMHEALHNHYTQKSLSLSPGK
light: B1 light with P15L, E17Q, Q27K, L42Q, K44R, Q50R, H98R, V99E
scFv: B1 scFv
notes: also called Parental Bispecific
B3: BKM0311 (anti-TRBC2/NKp30 bispecific antibody) (bispecific antibody, human IgG1, kappa, N297A)
heavy: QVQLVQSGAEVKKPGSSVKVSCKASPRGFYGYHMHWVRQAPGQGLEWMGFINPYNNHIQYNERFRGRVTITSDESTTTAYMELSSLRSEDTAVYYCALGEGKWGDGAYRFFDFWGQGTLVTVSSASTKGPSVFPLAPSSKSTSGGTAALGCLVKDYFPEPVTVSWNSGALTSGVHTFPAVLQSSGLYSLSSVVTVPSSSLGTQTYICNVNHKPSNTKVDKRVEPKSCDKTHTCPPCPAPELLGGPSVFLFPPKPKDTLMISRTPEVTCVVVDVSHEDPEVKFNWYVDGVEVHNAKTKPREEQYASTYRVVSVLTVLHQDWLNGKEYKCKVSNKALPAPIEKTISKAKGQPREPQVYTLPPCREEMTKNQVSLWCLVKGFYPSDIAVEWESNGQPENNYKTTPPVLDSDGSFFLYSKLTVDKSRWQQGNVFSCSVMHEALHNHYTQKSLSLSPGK
light: B1 light with P15L, E17Q, Q27K, L42Q, K44R, Q50R, H98R, V99E
scFv: B1 scFv
B4: BKM0312 (anti-TRBC2/NKp30 bispecific antibody) (bispecific antibody)
chain 1: not shown
chain 2: B1 light with P15L, E17Q, Q27K, L42Q, K44R, Q50R, H98R, V99E
chain 3: B1 scFv
B5: BIM0460 (Example 8; format not stated) (antibody, V domains shown)
VH: QVQLVQSGAEVKKPGSSVKVSCKASGYTFTGYVMHWVRQAPGQGLEWMGFINPYNDDIQSNERFRGRVTITSDKSTTTAYMELSSLRSEDTAVYYCARGAGYNFDGAYRFFDFWGQGTLVTVSS
VL: DVVMTQSPLSLPVTLGQPASISCRSSQRLVHSNGNTYLHWYQQRPGQSPRLLIYRVSNRFPGVPDRFSGSGSGTDFTLKISRVEAEDVGVYFCSQSTHVPYTFGGGTKVEIK
notes: Humanized JOVI.1 variant
B6: BJM0578 (Example 8; format not stated) (antibody, V domains shown)
VH: QVQLVQSGAEVKKPGSSVKVSCKASGYTFTGYVMHWVRQAPGQGLEWMGFIIPIFGTANYAQKFQGRVTITSDKSTTTAYMELSSLRSEDTAVYYCARGAGYNFDGAYRFFDFWGQGTLVTVSS
VL: B5 VL
notes: Germlined variant of BIM0460

biological target: T1, human NKp30 (construct not named) (human, UniProt O14931 19-135, limits assumed); assay: SPR, human NKp30 captured via anti-mouse Fc on CM5, bispecific from 50 nM in two-fold dilutions, 1:1 fit
T1 construct: also called hNKp30
T1 sequence (looked up): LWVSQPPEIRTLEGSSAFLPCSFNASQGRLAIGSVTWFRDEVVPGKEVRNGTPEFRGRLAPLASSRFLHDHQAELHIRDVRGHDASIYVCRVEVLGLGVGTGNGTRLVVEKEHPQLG
Experimental: (§1) In this example, surface plasmon resonance assay was performed to check binding of anti-TRBC2xNKp30 bispecific antibodies (bispecifics) to either hTRBC2, hTRBC1 or hNKp30 proteins. […] The bispecific antibodies may or may not have an N297A mutation in their Fc regions. FIG. 31B represents a design for monovalent TRBC2 control. Briefly, TRBC2xNKp30 bispecifics at 2 ug/mL were immobilized on CM5 chip via anti-human Fc antibody to 70 RU. Human TRBC2 or human TRBC1 antigens were diluted to 125 nM and then serially diluted two-fold. Association was 300 seconds and dissociation were 600 seconds. This assay was run in 1 x HBS-EP+ Buffer pH 7.4 and 25 C. The data was fit using a 1:1 binding model assess binding of bispecifics to NKp30, human NKp30 at 2 ug/mL was immobilized on CM5 chip via Anti-mouse Fc antibody to 70 RU. TRBC2xNKp30 bispecifics were diluted to 50 nM and then serially diluted two-fold. Association was 300 seconds and dissociation were 600 seconds. This assay was run in 1 x HBS-EP+ Buffer pH 7.4 and 25 C. The data was fit using a 1:1 binding model.

| Binder | Kd [nM] |
| --- | --- |
| B1 | 0.63 |
| B2 | 0.58 |
| B3 | 0.63 |
| B4 | 0.54 |

biological target: T2, human TRBC2 (construct not named) (human, UniProt A0A5B9 1-129, limits assumed); assay: SPR, bispecific captured via anti-human Fc on CM5, hTRBC2 from 125 nM in two-fold dilutions, 1:1 fit
T2 construct: also called hTRBC2
Experimental: as §1

T2 sequence (A0A5B9 1-129 limits assumed): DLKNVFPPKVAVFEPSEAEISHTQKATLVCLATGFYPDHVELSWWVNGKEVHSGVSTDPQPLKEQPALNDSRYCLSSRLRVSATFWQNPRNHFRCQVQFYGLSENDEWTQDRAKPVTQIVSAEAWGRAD

| Binder | Kd [nM] |
| --- | --- |
| B1 | 89 |
| B2 | 28 |
| B3 | 9.2 |
| B4 | 31 |

biological target: T3, human TRBC1 (construct not named) (human, UniProt P01850 1-129, limits assumed); assay: method not stated
T3 construct: also called hTRBC1
T3 sequence (P01850 1-129 limits assumed): as the sequence (A0A5B9 1-129 limits assumed) above, with K3N, N4K, K9E, Y36F counted along it

| Binder | Kd [nM] |
| --- | --- |
| B5 | 17 |
| B6 | 110 |

biological target: T4, TRBC2 on TRBC2+ cell lines (HPB-ALL; HH; HDMAR2) (human, UniProt A0A5B9 1-178); assay: flow cytometry on TRBC2+ HPB-ALL cells, antibody 200 nM to 0.003387 nM
T4 construct: whole, on cells; also called TRBC2+ HPB-ALL cells
Experimental: (§2) A flow cytometry-based assay was performed to check binding of anti-TRBC2x NKp30 to either TRBC2+ HPB-ALL cells, TRBC1+ Jurkat cells or NKp30+ KHYG-1 cells.
(§3) Each antibody was diluted to 200 nM and then serially diluted three-fold down to 0.003387 nM. Antibodies were incubated with each cell line for 1 hour at 4C. […] Zombie UV (BioLegend 423107) viability dye was added to the cells 1:1000 and incubated for 30 minutes at room temperature. Cells were analyzed on the CytoFlex LX flow cytometer.

T4 sequence (A0A5B9 whole entry): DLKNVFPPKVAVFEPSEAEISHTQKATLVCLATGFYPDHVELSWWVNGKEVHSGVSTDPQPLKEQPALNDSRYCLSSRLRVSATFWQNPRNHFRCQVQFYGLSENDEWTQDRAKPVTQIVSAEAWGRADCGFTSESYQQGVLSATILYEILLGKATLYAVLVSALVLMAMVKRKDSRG

| Binder | EC50 [nM] |
| --- | --- |
| B1 | 4 |
| B2 | 1.5 |
| B3 | 0.33 |
| B4 | 1.1 |

biological target: T5, NKp30 on KHYG-1 NK cells (human, UniProt O14931 19-201); assay: flow cytometry on NKp30+ KHYG-1 cells, antibody 200 nM to 0.003387 nM
T5 construct: whole, on cells; also called NK cell line KHYG-1; NKp30+ KHYG-1 cells
T5 sequence (looked up): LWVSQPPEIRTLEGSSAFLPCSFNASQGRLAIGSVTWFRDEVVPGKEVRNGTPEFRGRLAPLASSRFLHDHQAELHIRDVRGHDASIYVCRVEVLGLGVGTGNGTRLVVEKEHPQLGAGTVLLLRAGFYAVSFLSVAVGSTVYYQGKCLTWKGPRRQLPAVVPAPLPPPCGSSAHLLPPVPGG
Experimental: as §2, §3

| Binder | EC50 [nM] |
| --- | --- |
| B1 | 4 |
| B2 | 1.5 |
| B3 | 0.33 |
| B4 | 1.1 |
